For seven molecules, EC50 results are on record in patent publication US20230242658A1 (published 2023).

Like-named read-outs stand apart in the source and are kept apart here.

Test [1] concerns the target human PD-L1 on CHO-K1 cells (human, UniProt Q9NZQ7 19-290). Briefly: FACS; MDA-MB-231 cells. In general terms: A flow cytometer gives signals particle by particle.
Test [2] addresses T1, human 4-1BB on CHO-K1 cells (human, UniProt Q07011 24-255). Briefly: FACS.
The target in test [3] is T1, human 4-1BB on CHO-K1 cells. Briefly: FACS. This is another data set of the same source.

human PD-L1 on CHO-K1 cells, sequence (Q9NZQ7 19-290): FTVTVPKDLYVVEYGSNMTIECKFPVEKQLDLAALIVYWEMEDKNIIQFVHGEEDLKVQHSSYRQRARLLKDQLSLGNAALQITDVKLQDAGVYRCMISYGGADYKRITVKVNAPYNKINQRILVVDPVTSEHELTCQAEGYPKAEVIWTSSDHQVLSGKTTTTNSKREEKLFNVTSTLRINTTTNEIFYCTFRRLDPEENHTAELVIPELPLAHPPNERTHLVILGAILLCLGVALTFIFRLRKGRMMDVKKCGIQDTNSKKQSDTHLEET
T1 sequence (Q07011 24-255): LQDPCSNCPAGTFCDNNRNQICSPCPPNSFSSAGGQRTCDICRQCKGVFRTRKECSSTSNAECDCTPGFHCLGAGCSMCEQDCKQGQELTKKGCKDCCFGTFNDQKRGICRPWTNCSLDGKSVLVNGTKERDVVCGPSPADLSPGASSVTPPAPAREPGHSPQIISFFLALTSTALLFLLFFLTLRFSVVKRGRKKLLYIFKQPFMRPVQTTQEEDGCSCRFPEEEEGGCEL

B1: PR007137 (bispecific antibody)
light: DIQMTQSPSTLSASVGDRVTVTCRASQSIYIWLAWYQQKPGKAPNLLIYKASSLETGVPSRFSGSGSGTEFTLTISSLQPDDFATYYCQQYYGSSRTFGQGTKVEIKRTVAAPSVFIFPPSDEQLKSGTASVVCLLNNFYPREAKVQWKVDNALQSGNSQESVTEQDSKDSTYSLSSTLTLSKADYEKHKVYACEVTHQGLSSPVTKSFNRGEC
heavy: EVQLVESGGGLVQPGGSLRLSCAASGFTFSSYWMSWVRQAPGKGLEWVANIKQEGSEKYYVDSVKGRFTISRDNAKNSLYLQMNSLRAEDTAVYYCARDRAVAGAFDIWGQGTMVTVSSASTKGPSVFPLAPSSKSTSGGTAALGCLVKDYFPEPVTVSWNSGALTSGVHTFPAVLQSSGLYSLSSVVTVPSSSLGTQTYICNVNHKPSNTKVDKKVEPKSCDKTHTCPPCPAPEAAGAPSVFLFPPKPKDTLMISRTPEVTCVVVDVSHEDPEVKFNWYVDGVEVHNAKTKPREEQYNSTYRVVSVLTVLHQDWLNGKEYKCKVSNKALPAPIEKTISKAKGQPREPQVYTLPPSREEMTKNQVSLTCLVKGFYPSDIAVEWESNGQPENNYKTTPPVLDSDGSFFLYSKLTVDKSRWQQGNVFSCSVMHEALHNHYTQKSLSLSPGGGSGGSEVQLVESGGGVVQPGRSLRLSCAASGFTFSDYYMSWFRQAPGKGLEWVSYISSSGTTIDYADSVKGRFTISRDNAKNSLYLQMNSLRAEDTAVYYCAREREEVAGTLDFDYWGQGTPVTVSS
As usually defined, the EC50 is the concentration needed to bring the measured effect to its halfway point. Low readings indicate higher potency in that assay, high ones lower potency in that assay. For B1, the EC50 worked out at 0.203 nM in test [1] and 4.65 nM in test [2].

B2: PR007132 (bispecific antibody)
light: DIQMTQSPSTLSASVGDRVTVTCRASQSIYIWLAWYQQKPGKAPNLLIYKASSLETGVPSRFSGSGSGTEFTLTISSLQPDDFATYYCQQYYGSSRTFGQGTKVEIKRTVAAPSVFIFPPSDEQLKSGTASVVCLLNNFYPREAKVQWKVDNALQSGNSQESVTEQDSKDSTYSLSSTLTLSKADYEKHKVYACEVTHQGLSSPVTKSFNRGEC
heavy: EVQLVESGGGLVQPGGSLRLSCAASGFTFSSYWMSWVRQAPGKGLEWVANIKQEGSEKYYVDSVKGRFTISRDNAKNSLYLQMNSLRAEDTAVYYCARDRAVAGAFDIWGQGTMVTVSSASTKGPSVFPLAPSSKSTSGGTAALGCLVKDYFPEPVTVSWNSGALTSGVHTFPAVLQSSGLYSLSSVVTVPSSSLGTQTYICNVNHKPSNTKVDKKVEPKSCDKTHTCPPCPAPEAAGAPSVFLFPPKPKDTLMISRTPEVTCVVVDVSHEDPEVKFNWYVDGVEVHNAKTKPREEQYNSTYRVVSVLTVLHQDWLNGKEYKCKVSNKALPAPIEKTISKAKGQPREPQVYTLPPSREEMTKNQVSLTCLVKGFYPSDIAVEWESNGQPENNYKTTPPVLDSDGSFFLYSKLTVDKSRWQQGNVFSCSVMHEALHNHYTQKSLSLSPGGGSGGSEVQLVESGGGLVKPGGSLRLSCAASGFTFSDYYMSWIRQAPGKGLEWVSYISSSGSTIYYADSVKGRFTISRDNAKNSLYLQMNSLRAEDTAVYYCARVKPVAGTWDWFDPWGQGTPVTVSS
As to B2, the half-maximal effective concentration (EC50) was found to be 0.22 nM in test [1] and 5.58 nM in test [2].

B3: PR007142 (bispecific antibody)
light: DIQMTQSPSTLSASVGDRVTVTCRASQSIYIWLAWYQQKPGKAPNLLIYKASSLETGVPSRFSGSGSGTEFTLTISSLQPDDFATYYCQQYYGSSRTFGQGTKVEIKRTVAAPSVFIFPPSDEQLKSGTASVVCLLNNFYPREAKVQWKVDNALQSGNSQESVTEQDSKDSTYSLSSTLTLSKADYEKHKVYACEVTHQGLSSPVTKSFNRGEC
heavy: EVQLVESGGGLVQPGGSLRLSCAASGFTFSSYWMSWVRQAPGKGLEWVANIKQEGSEKYYVDSVKGRFTISRDNAKNSLYLQMNSLRAEDTAVYYCARDRAVAGAFDIWGQGTMVTVSSASTKGPSVFPLAPSSKSTSGGTAALGCLVKDYFPEPVTVSWNSGALTSGVHTFPAVLQSSGLYSLSSVVTVPSSSLGTQTYICNVNHKPSNTKVDKKVEPKSCDKTHTCPPCPAPEAAGAPSVFLFPPKPKDTLMISRTPEVTCVVVDVSHEDPEVKFNWYVDGVEVHNAKTKPREEQYNSTYRVVSVLTVLHQDWLNGKEYKCKVSNKALPAPIEKTISKAKGQPREPQVYTLPPSREEMTKNQVSLTCLVKGFYPSDIAVEWESNGQPENNYKTTPPVLDSDGSFFLYSKLTVDKSRWQQGNVFSCSVMHEALHNHYTQKSLSLSPGGGSGGSEVQLVESGGGLVKPGGSLRLSCAASGFTFSDYYMSWIRQAPGKGLEWVSYISNNGSTIYYADSVKGRFTISRDNAKNSLYLQMNSLRAEDTAVYYCARVRPGGSGNYWDWFDPWGQGTMVTVSS
Regarding B3, the EC50 in test [3] was 23.8 nM; in test [1] it was 0.263 nM.

B4: PR007130 (bispecific antibody)
light: DIQMTQSPSTLSASVGDRVTVTCRASQSIYIWLAWYQQKPGKAPNLLIYKASSLETGVPSRFSGSGSGTEFTLTISSLQPDDFATYYCQQYYGSSRTFGQGTKVEIKRTVAAPSVFIFPPSDEQLKSGTASVVCLLNNFYPREAKVQWKVDNALQSGNSQESVTEQDSKDSTYSLSSTLTLSKADYEKHKVYACEVTHQGLSSPVTKSFNRGEC
heavy: EVQLVESGGGLVQPGGSLRLSCAASGFTFSSYWMSWVRQAPGKGLEWVANIKQEGSEKYYVDSVKGRFTISRDNAKNSLYLQMNSLRAEDTAVYYCARDRAVAGAFDIWGQGTMVTVSSASTKGPSVFPLAPSSKSTSGGTAALGCLVKDYFPEPVTVSWNSGALTSGVHTFPAVLQSSGLYSLSSVVTVPSSSLGTQTYICNVNHKPSNTKVDKKVEPKSCDKTHTCPPCPAPEAAGAPSVFLFPPKPKDTLMISRTPEVTCVVVDVSHEDPEVKFNWYVDGVEVHNAKTKPREEQYNSTYRVVSVLTVLHQDWLNGKEYKCKVSNKALPAPIEKTISKAKGQPREPQVYTLPPSREEMTKNQVSLTCLVKGFYPSDIAVEWESNGQPENNYKTTPPVLDSDGSFFLYSKLTVDKSRWQQGNVFSCSVMHEALHNHYTQKSLSLSPGGGSGGSEVQLLESGGGLVQPGGSLRLSCAASGFTFSNYAMSWFRQPPETGLKWVSSIDASGGDTYYADSVKGRFTISRDNSKNTLYLQMNSLRAEDTAVYYCAKEGSHGTDDSHYDVDVWGQGTTVTVSS
In the case of B4, the results for the 50% effective concentration (EC50) in test [1] and in test [2] were 0.161 nM and 2.06 nM, respectively.

B5: PR007133 (bispecific antibody)
light: DIQMTQSPSTLSASVGDRVTVTCRASQSIYIWLAWYQQKPGKAPNLLIYKASSLETGVPSRFSGSGSGTEFTLTISSLQPDDFATYYCQQYYGSSRTFGQGTKVEIKRTVAAPSVFIFPPSDEQLKSGTASVVCLLNNFYPREAKVQWKVDNALQSGNSQESVTEQDSKDSTYSLSSTLTLSKADYEKHKVYACEVTHQGLSSPVTKSFNRGEC
heavy: EVQLVESGGGLVQPGGSLRLSCAASGFTFSSYWMSWVRQAPGKGLEWVANIKQEGSEKYYVDSVKGRFTISRDNAKNSLYLQMNSLRAEDTAVYYCARDRAVAGAFDIWGQGTMVTVSSASTKGPSVFPLAPSSKSTSGGTAALGCLVKDYFPEPVTVSWNSGALTSGVHTFPAVLQSSGLYSLSSVVTVPSSSLGTQTYICNVNHKPSNTKVDKKVEPKSCDKTHTCPPCPAPEAAGAPSVFLFPPKPKDTLMISRTPEVTCVVVDVSHEDPEVKFNWYVDGVEVHNAKTKPREEQYNSTYRVVSVLTVLHQDWLNGKEYKCKVSNKALPAPIEKTISKAKGQPREPQVYTLPPSREEMTKNQVSLTCLVKGFYPSDIAVEWESNGQPENNYKTTPPVLDSDGSFFLYSKLTVDKSRWQQGNVFSCSVMHEALHNHYTQKSLSLSPGGGSGGSEVQLEESGGGLVKPGGSLRLSCAASGFTFSDYYMSWFRQAPGKGLEWVSYISSSGSITDYADAVKGRFNISRDNAKNSLYLQMNSLRAEDTAVYYCAREREAVAGTLDFDNWGQGTLVTVSS
As to B5, the EC50 in test [1] was found to be 0.216 nM; in test [2] it was 5.06 nM.

B6: PR007136 (bispecific antibody)
light: DIQMTQSPSTLSASVGDRVTVTCRASQSIYIWLAWYQQKPGKAPNLLIYKASSLETGVPSRFSGSGSGTEFTLTISSLQPDDFATYYCQQYYGSSRTFGQGTKVEIKRTVAAPSVFIFPPSDEQLKSGTASVVCLLNNFYPREAKVQWKVDNALQSGNSQESVTEQDSKDSTYSLSSTLTLSKADYEKHKVYACEVTHQGLSSPVTKSFNRGEC
heavy: EVQLVESGGGLVQPGGSLRLSCAASGFTFSSYWMSWVRQAPGKGLEWVANIKQEGSEKYYVDSVKGRFTISRDNAKNSLYLQMNSLRAEDTAVYYCARDRAVAGAFDIWGQGTMVTVSSASTKGPSVFPLAPSSKSTSGGTAALGCLVKDYFPEPVTVSWNSGALTSGVHTFPAVLQSSGLYSLSSVVTVPSSSLGTQTYICNVNHKPSNTKVDKKVEPKSCDKTHTCPPCPAPEAAGAPSVFLFPPKPKDTLMISRTPEVTCVVVDVSHEDPEVKFNWYVDGVEVHNAKTKPREEQYNSTYRVVSVLTVLHQDWLNGKEYKCKVSNKALPAPIEKTISKAKGQPREPQVYTLPPSREEMTKNQVSLTCLVKGFYPSDIAVEWESNGQPENNYKTTPPVLDSDGSFFLYSKLTVDKSRWQQGNVFSCSVMHEALHNHYTQKSLSLSPGGGSGGSEVQLVESGGGLVKPGGSLRLSCAASGFTFSDYYMSWFRQAPGKGLEWVSYISSSGSTQDYADSVKGRFTISRDNAKNSLYLQMNSLRAEDTAVYYCAREREPVAGTLDFDNWGQGTPVTVSS
For B6, the EC50 in test [1] was found to be 0.253 nM; in test [2], 8.74 nM.

B7: PR007135 (bispecific antibody)
light: DIQMTQSPSTLSASVGDRVTVTCRASQSIYIWLAWYQQKPGKAPNLLIYKASSLETGVPSRFSGSGSGTEFTLTISSLQPDDFATYYCQQYYGSSRTFGQGTKVEIKRTVAAPSVFIFPPSDEQLKSGTASVVCLLNNFYPREAKVQWKVDNALQSGNSQESVTEQDSKDSTYSLSSTLTLSKADYEKHKVYACEVTHQGLSSPVTKSFNRGEC
heavy: EVQLVESGGGLVQPGGSLRLSCAASGFTFSSYWMSWVRQAPGKGLEWVANIKQEGSEKYYVDSVKGRFTISRDNAKNSLYLQMNSLRAEDTAVYYCARDRAVAGAFDIWGQGTMVTVSSASTKGPSVFPLAPSSKSTSGGTAALGCLVKDYFPEPVTVSWNSGALTSGVHTFPAVLQSSGLYSLSSVVTVPSSSLGTQTYICNVNHKPSNTKVDKKVEPKSCDKTHTCPPCPAPEAAGAPSVFLFPPKPKDTLMISRTPEVTCVVVDVSHEDPEVKFNWYVDGVEVHNAKTKPREEQYNSTYRVVSVLTVLHQDWLNGKEYKCKVSNKALPAPIEKTISKAKGQPREPQVYTLPPSREEMTKNQVSLTCLVKGFYPSDIAVEWESNGQPENNYKTTPPVLDSDGSFFLYSKLTVDKSRWQQGNVFSCSVMHEALHNHYTQKSLSLSPGGGSGGSEVQLVESGGGLVKPGGSLRLSCAASGFTFSDYYMSWFRQAPGKGLEWVSYISGSGSIIDYADSVKGRFTISRDNAKNSLYLQMNSLRAEDTAVYYCSREREAVAGTLDFDYWGQGTLVTVSS
Turning to B7, the EC50 in test [1] turned out to be 0.299 nM; in test [2] it was 12.9 nM.
